From the supplement of paper PMC7125110
± gives the standard error. Variants at the floor of the assay were thinned out.

B1: glmS ribozyme (parent)
chain: AUAAAAGCGCCAGAACUACAGAAAUGUAGUUGACGAGGAGGAGGUUUAUCGAAUUUUCGGCGGAUGCCUCCAAA

Key:
Details in all cases: with glucosamine-6-phosphate
glucosamine-6-phosphate [1] = variants of: B1; test: self-cleavage kobs at 40 uM GlcN6P; higher = faster cleavage; RNA array
In short: (§1)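 Barcoded glmS ribozyme variants on sequenced MiSeq chips were transcribed in situ by E. coli RNA polymerase and tracked through a hybridised Cy3 probe at 37 °C. Glucosamine-6-phosphate (40 μM to 10 mM) in HEPES/KCl/Mg(OAc)2 buffer was flowed in, and tiles were imaged over ~14 h. Signals were normalised to baseline and to non-cleaving reference variants; per-tile medians were fit to one- or two-exponential decays to give kobs. kcat and KM came from weighted Michaelis–Menten fits across concentrations.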

glucosamine-6-phosphate [2] = variants of: B1; test: self-cleavage kobs at 160 uM GlcN6P; higher = faster cleavage; RNA array
In short: as §1

glucosamine-6-phosphate [3] = variants of: B1; test: self-cleavage kobs at 640 uM GlcN6P; higher = faster cleavage; RNA array
In short: as §1

glucosamine-6-phosphate [4] = variants of: B1; test: self-cleavage kobs at 2500 uM GlcN6P; higher = faster cleavage; RNA array
In short: as §1

glucosamine-6-phosphate [5] = variants of: B1; test: self-cleavage kobs at 10000 uM GlcN6P; higher = faster cleavage; RNA array
In short: as §1

| Variant | self-cleavage kobs at 40 uM GlcN6P (glucosamine-6-phosphate [1]) [s⁻¹] | self-cleavage kobs at 160 uM GlcN6P (glucosamine-6-phosphate [2]) [s⁻¹] | self-cleavage kobs at 640 uM GlcN6P (glucosamine-6-phosphate [3]) [s⁻¹] | self-cleavage kobs at 2500 uM GlcN6P (glucosamine-6-phosphate [4]) [s⁻¹] | self-cleavage kobs at 10000 uM GlcN6P (glucosamine-6-phosphate [5]) [s⁻¹] |
| --- | --- | --- | --- | --- | --- |
| AUAAAAGCGCCAGAACUACAGAAAUGUAGUUGACGGGGGGGAGGUUUAUCGAAUUUUCGGCGGAUGCCUCCAAA [A36G A39G] | < 1e-05 | < 1e-05 | < 1e-05 |  |  |
| AUAAAAGCGCCAGAACUACAGAAAUGUAGCUGACGAGCAGGAGGUUUAUCGAAUUUUCGGCGGAUGCCUCCAAA [U30C G38C] | < 1e-05 |  | < 1e-05 | < 1e-05 |  |
| AUAAAAGCGCCAGAACUACAGAAAUGUAGUUGACAAGGAGGAGGUUUAGCGAAUUUUCGGCGGAUGCCUCAAAA [G35A U49G C71A] | < 1e-05 |  |  |  | < 1e-05 |
| AUAAAAGCUCGAGAACUACAGAAAUGUAGUUGACGAGGAGGAGGUUUAUCGAAUUUUCGGCGGAUGCCUCCAAA [G9U C11G] | < 1e-05 |  |  | < 1e-05 | < 1e-05 |
| AUAAAAGCGCCAGAACUACAGAAAUGUAGUUCACGAGGGGGAGGUUUAUCGAAUUUUCGGCGGAUGCCUCCAAA [G32C A39G] | < 1e-05 | < 1e-05 |  | 3.52e-05 ± 1.2e-05 | 0.000101 ± 1.4e-05 |
| AUAAAAGCGCCAGAACUACAGAAAUGUAGUUAACCAGGAGGAGGUUUAUCGAAUUUUCGGCGGAUGGCUCCAAA [G32A G35C C67G] | < 1e-05 |  |  |  | < 1e-05 |
| AUAAAACCGCUAGAACUACAGAAAUGUAGUUGACGAGGAUGAGGUUUAUCGAAUUUUCGGCGGAUGCCUCAAAA [G7C C11U G40U C71A] | < 1e-05 |  | < 1e-05 | < 1e-05 | < 1e-05 |
| AUAAAGGCGCCAGUACUACAGAAAUGUAGUAGACGAGGAGGAGGUUUAUCGAAUUUGCGGCGGAUGCCUCCAAA [A6G A14U U31A U57G] | < 1e-05 | < 1e-05 | < 1e-05 |  | < 1e-05 |
| AUAAAAGCGCCAGAGCUACAGAAAUGUAGUGGACGAGGAGGAGGUUUAUCGAAUUUUCGGCGGAUGCCCCCAAA [A15G U31G U69C] | 4.45e-05 ± 1.7e-05 |  |  |  |  |
| AUAAAAGCGCCGGAACUACAGAAAUGUAGUUGACGCGGAGGAGGUUUAUCGAAUUUUCGGCGGAUGCCUCCAAA [A12G A36C] | < 1e-05 | < 1e-05 | < 1e-05 | < 1e-05 |  |
| AUAAAAGCGCCAGAACUACAGAAAUGUAGUUGACGCGGAGGAGGUUUAUCGAAUUUUCGGCGAAUGCCUCCAAA [A36C G63A] | < 1e-05 |  | < 1e-05 |  |  |
| AUAAAAGCCCCAGAACUACAGAAAUGUAGUUGACGAGGAGGAUUUUUAUCGAAUUUUAGGCGGAUGCCUCAAAA [G9C G43U G44U C58A C71A] | < 1e-05 |  |  |  |  |
| CUAAAAGCGCCAGAACUACAGAAAUGUAGUUGACGAGGAGGAGGUUUAUCGAAUUGUCGGCGGAUGCCUCCAAA [A1C U56G] | 0.000433 ± 9.4e-05 |  |  |  | 0.0185 ± 0.0058 |
| AUAAAAGCGCCAGAACUACAGAAAUGUAUCUGACGAGGAGGAGGUUUAUCGAAUUUUCGGCGGAUGCCUCCAAA [G29U U30C] | < 1e-05 |  | < 1e-05 | < 1e-05 |  |
